In patent US20220281980A1 (Bristol-Myers Squibb, published 2022):

Legend:
[1] = molecular target: T1, human MICA/B endogenously expressed on RPMI-8226 cells (human, UniProt Q29983 24-383); assay: flow cytometry, tumor cells with endogenous MICA/B
T1 construct: whole, on cells
T1 sequence (looked up): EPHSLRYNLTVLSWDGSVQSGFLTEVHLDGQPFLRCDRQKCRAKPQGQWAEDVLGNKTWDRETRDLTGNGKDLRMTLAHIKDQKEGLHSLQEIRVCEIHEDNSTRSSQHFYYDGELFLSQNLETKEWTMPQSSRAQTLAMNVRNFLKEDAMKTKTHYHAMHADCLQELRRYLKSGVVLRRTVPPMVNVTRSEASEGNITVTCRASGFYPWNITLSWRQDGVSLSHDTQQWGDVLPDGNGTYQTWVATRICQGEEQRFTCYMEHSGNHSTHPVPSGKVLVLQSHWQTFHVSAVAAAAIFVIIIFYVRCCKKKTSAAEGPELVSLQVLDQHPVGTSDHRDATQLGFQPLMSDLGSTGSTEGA

[2] = molecular target: T2, human MICA/B endogenously expressed on HeLa cells (MICA allele *008) (human, UniProt Q29983 24-331); assay: flow cytometry, tumor cells with endogenous MICA/B
T2 construct: it speaks of MICA/B, so MICB may be present as well
T2 chain: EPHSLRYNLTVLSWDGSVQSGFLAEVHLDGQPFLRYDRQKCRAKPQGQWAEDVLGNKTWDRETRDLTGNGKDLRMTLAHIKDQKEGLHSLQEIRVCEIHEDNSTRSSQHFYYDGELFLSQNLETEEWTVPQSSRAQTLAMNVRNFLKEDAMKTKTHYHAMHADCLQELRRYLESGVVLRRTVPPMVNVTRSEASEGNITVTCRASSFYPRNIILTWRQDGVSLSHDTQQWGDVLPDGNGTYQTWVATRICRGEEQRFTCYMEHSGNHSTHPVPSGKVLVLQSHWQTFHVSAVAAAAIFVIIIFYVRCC

[3] = molecular target: T3, human MICA/B endogenously expressed on 786-O cells (MICA allele *008) (human, UniProt Q29983 24-331); assay: flow cytometry, tumor cells with endogenous MICA/B
T3 construct: it speaks of MICA/B, so MICB may be present as well; also called 786-0
T3 chain: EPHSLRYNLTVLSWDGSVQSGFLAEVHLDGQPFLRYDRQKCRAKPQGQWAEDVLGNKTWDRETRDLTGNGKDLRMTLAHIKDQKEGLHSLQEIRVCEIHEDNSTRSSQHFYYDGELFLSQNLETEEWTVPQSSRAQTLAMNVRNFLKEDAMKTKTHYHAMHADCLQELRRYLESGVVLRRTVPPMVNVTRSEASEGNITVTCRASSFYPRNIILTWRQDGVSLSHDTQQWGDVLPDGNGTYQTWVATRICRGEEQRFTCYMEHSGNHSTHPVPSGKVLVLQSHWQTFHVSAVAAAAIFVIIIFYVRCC

[4] = molecular target: T4, recombinant soluble human MICA*002 antigen (human, UniProt Q29983 24-307); assay: SPR (Biacore 3000), antibody captured on Protein G chip, huMICA-his analyte; power of ten not given
T4 construct: also called huIMICA-his allele *002
T4 chain: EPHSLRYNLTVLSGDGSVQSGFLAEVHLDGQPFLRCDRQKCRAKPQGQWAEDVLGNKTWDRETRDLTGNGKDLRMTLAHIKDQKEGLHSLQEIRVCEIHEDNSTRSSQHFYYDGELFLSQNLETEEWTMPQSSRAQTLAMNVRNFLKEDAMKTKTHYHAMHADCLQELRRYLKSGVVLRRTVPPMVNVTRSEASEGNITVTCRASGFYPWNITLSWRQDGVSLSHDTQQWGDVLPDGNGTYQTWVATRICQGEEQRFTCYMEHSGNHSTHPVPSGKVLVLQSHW
Method: (§1) Kinetics and affinity of anti-MICA/B antibodies MICA.2, 19G6, 16A5, and 71C2 towards human MICA alleles (huIMICA-his allele *002, *004, *008, and *009) were also determined on a BIACORE 3000® instrument using the following conditions: [0571] Running Buffer: HES-EP running buffer [0572] Chip: CM5 Protein G Chip Fc1: Blank. Fc2-4: ˜200Rus [0573] Ab: 5 ug/mL, 10 uL @ 10 uL/min [0574] Ag binding: 5 min association, 7 min dissociation @ 25 uL/min, [0575] Regeneration: Glycine 1.7, 10 uL @ 100 uL/min followed by 60s wash by HES-EP

[5] = molecular target: T5, recombinant soluble human MICA*009 antigen (human, UniProt Q29983 24-307); assay: as above
T5 construct: also called huIMICA-his allele *009
T5 chain: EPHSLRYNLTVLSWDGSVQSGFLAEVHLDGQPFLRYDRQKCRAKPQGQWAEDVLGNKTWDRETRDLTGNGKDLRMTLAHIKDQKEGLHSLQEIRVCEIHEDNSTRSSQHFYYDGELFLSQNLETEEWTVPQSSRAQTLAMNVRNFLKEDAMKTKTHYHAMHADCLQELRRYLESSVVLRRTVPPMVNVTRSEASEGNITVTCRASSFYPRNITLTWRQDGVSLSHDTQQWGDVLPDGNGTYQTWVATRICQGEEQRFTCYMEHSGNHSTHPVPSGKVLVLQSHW
Method: as §1

[6] = molecular target: T6, recombinant soluble human MICA*004 antigen (human, UniProt Q29983 24-307); assay: as above
T6 construct: also called huIMICA-his allele *004
T6 chain: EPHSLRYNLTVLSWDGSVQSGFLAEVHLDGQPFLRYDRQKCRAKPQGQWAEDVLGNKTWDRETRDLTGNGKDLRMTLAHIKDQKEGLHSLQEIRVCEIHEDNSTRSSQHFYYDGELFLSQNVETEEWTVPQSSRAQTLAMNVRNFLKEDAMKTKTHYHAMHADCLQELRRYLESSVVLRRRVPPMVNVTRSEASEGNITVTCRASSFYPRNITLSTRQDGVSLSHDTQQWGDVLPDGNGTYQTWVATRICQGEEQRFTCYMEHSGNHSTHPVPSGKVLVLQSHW
Method: as §1

[7] = molecular target: T7, recombinant soluble human MICA*008 antigen (human, UniProt Q29983 24-307); assay: as above
T7 construct: also called huIMICA-his allele *008; recombinant soluble MICA (allele 8)
T7 chain: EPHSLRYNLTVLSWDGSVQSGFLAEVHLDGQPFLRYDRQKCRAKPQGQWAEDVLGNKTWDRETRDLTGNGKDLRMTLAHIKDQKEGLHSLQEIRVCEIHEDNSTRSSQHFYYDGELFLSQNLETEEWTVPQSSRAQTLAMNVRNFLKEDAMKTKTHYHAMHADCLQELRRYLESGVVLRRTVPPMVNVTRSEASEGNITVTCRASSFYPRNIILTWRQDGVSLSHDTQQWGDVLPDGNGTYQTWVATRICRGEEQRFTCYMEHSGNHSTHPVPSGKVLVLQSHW
Method: as §1

[8] = molecular target: T8, human MICA*008 expressed on CHO cells (human, UniProt Q29983 24-331); assay: flow cytometry, transfected CHO cells
T8 construct: also called MICA allele 008
T8 chain: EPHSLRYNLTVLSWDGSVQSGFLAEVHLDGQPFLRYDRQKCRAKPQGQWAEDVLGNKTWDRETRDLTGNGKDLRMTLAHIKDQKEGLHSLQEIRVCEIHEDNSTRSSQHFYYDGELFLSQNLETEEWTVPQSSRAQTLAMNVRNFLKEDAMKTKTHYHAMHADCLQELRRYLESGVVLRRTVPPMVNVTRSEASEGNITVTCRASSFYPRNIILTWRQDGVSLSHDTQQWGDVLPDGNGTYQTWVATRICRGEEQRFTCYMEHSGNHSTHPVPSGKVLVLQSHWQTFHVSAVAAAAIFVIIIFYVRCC

B1: 19G6 (antibody, V domains shown)
VH: QVQLVESGGGVVQPGRSLRLSCAASGFTFSNYAMHWVRQAPGEGLEWVALIWYDGSNKFYGDSVKGRFTISRDNSKNTLYLQMNSLSAEDTAVYYCAREGSGHYWGQGTLVTVSS
VL: AIQLTQSPSSLSASVGDRVTITCRASQGISSALAWYQQKPGKVPKSLIYDASSLESGVPSRFSGSGSGTDFTLTISSLQPEDFATYYCQQFNSYPITFGQGTRLEIK
notes: Hybridoma antibody from human IgG transgenic mice, parent of MICA.36; also called 19G6 mAb; hybridoma 19G6
EC50 [1]: 3.89 nM | EC50 [2]: 1.76 nM | EC50 [3]: 1.37 nM | koff [4]: 8.14 s⁻¹ | koff [5]: 2.15 s⁻¹ | koff [6]: 2.28 s⁻¹ | koff [7]: 1.87 s⁻¹ | EC50 [8]: 9.23 nM

B2: 71C2 (antibody, V domains shown)
VH: EVQLVESGGGLVQPGRSLRLSCAASGFTFNNYAMHWVRQAPGKGLEWVSGITWNSDSIGYADSVKGRFTISRDNAKNSLYLQMNSLRAEDTALYYCAKDSVLLWFGGMDVWGQGTTVTVSS
VL: not shown
notes: Hybridoma antibody
EC50 [1]: 36.9 nM | EC50 [2]: 10.2 nM | EC50 [3]: 13.8 nM | koff [4]: 0.0116 s⁻¹ | koff [5]: 0.0325 s⁻¹ | koff [6]: 0.0303 s⁻¹ | koff [7]: 0.0109 s⁻¹ | EC50 [8]: 10 nM

B3: 24G11 (antibody, V domains shown)
VH: EVQLVQSGAEVKKPGESLKISCKGSGYSFTNYWIGWVRQMPGKGLEWLGIIHPGDSYTRYSPSFQGQVTISADKSISTAYLQWSSLKASDTAIYYCAREGIAATPFDYWGQGTLVTVSS
VL: EIVLTQSPATLSLSPGERATLSCRASQSVSSYLAWFQQKPGQAPRLLIYDASNRATGIPARFSGSGSGTDFTLTISSLEPEDFAVYYCQQRSNWPPTFGQGTKVEIK
notes: also called MICA.54; 24G11 (MICA.54)
EC50 [1]: 104 nM | EC50 [2]: 192 nM | EC50 [3]: 147 nM | EC50 [8]: 248 nM

B4: MICA.2 (antibody, human IgG1, kappa, V domains shown)
VH: EVQLVESGGGLVQPGGSLRLSCAASGFTFSTYSMNWVRQAPGKGLEWVSYISYRSRTIYYADSVKGRFTISRDNARNSLYLQMNSLRDEDTAVYYCARWGYGSGGFDYWGQGTLVTVSS
VL: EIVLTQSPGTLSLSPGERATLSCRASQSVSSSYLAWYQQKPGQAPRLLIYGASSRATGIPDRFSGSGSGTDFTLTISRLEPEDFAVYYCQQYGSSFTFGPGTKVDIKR
notes: 3F5 variable regions on human IgG1f and human kappa constant regions, made in CHO-S cells; also called 3F5; recombinant antibody of 3F5
EC50 [1]: 41.9 nM | EC50 [2]: 1.74 nM | EC50 [3]: 4.95 nM | koff [4]: 0.0104 s⁻¹ | koff [5]: 0.0232 s⁻¹ | koff [6]: 0.0284 s⁻¹ | koff [7]: 0.0246 s⁻¹ | EC50 [8]: 2.14 nM
